Test results: PMC10177866, “Computational Insights and In Silico Characterization of a Novel Mini-Lipoxygenase from Nostoc Sphaeroides and Its Application in the Quality Improvement of Steamed Bread” (International Journal of Molecular Sciences, 2023)
Values belong to the molecule of their own block, whether it stands above or below them.

Experiments:
NsLOX = target: T1, NsLOX (Nostoc sphaeroides, UniProt A0A5P8W1C8); assay: absorbance at […] nm, Lineweaver-Burk; format: biochemical; settings: optimum assay conditions: 20 mM Tris-HCl pH 8.0, 15 °C, substrate 20-100 μM
T1 construct: gene GXM_03308; full length, 455 residues (52 kDa) plus 2 kDa His tag from pET-28a(+) NdeI/XhoI, tag kept; codon-optimised synthetic gene; E. coli BL21(DE3); Ni-NTA; about 54 kDa; C-terminal Ile455; no N-terminal PLAT domain
T1 sequence (A0A5P8W1C8 1-455): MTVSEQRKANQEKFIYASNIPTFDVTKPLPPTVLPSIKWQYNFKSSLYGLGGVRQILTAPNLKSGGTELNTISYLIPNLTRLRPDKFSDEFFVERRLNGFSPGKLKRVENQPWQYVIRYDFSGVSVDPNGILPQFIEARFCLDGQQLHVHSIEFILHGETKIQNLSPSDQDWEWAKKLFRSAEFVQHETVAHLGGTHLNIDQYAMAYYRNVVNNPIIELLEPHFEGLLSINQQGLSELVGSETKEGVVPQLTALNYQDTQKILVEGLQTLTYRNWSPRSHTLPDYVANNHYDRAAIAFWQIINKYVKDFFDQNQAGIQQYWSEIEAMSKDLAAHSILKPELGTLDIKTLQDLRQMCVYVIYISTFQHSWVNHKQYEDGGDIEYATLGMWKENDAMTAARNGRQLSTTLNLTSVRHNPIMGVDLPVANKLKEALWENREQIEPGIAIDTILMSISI

purified protein = substrate: CCCCC/C=C\C/C=C\C/C=C\C/C=C\CCCC(=O)O; assay: purified protein; format: biochemical, Nostoc sphaeroides; settings: optimum assay conditions: 20 mM Tris-HCl pH 8.0, 15 °C, substrate 20-100 μM

Km (NsLOX; Km above tested substrate range): 151 ± 6.39 µM
Molecule: CC/C=C\C/C=C\C/C=C\CCCCCCCC(=O)O [ALA, α-Linolenic acid]

Km (NsLOX): 19.5 ± 1.24 µM
Molecule: CCCCC/C=C\C/C=C\CCCCCCCC(=O)O [LA, Linoleic acid]

B1: NsLOX (Nostoc sphaeroides CCNUC1) (protein)
chain: T1 sequence (A0A5P8W1C8 1-455)
notes: full length, 455 residues (52 kDa) plus 2 kDa His tag from pET-28a(+) NdeI/XhoI, tag kept; codon-optimised synthetic gene; E. coli BL21(DE3); Ni-NTA; about 54 kDa; C-terminal Ile455; no N-terminal PLAT domain
Km (purified protein): 571.22 ± 26.88 µM
Vmax (purified protein): 30.6 µM/min
kcat (purified protein): 7300 ± 145 s⁻¹
kcat/Km (purified protein): 1.28e+07 M⁻¹ s⁻¹
